The values that follow are results of earlier work, collected in publication PMC4365979.

In the data set the target is Rab11 (Homo sapiens) (UniProt P62491).
Sequence of UniProt P62491 (P62491 2-213): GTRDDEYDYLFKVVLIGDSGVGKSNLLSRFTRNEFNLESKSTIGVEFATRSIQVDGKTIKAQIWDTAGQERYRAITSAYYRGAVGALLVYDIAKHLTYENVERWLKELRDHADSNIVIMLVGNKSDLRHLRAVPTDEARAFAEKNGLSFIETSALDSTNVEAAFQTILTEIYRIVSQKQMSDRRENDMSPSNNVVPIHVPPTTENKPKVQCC

One may read the Kd as a measure of binding affinity in units of concentration. As for Rab11-FIP1/RCP (from UniProt Q6WKZ4), the Kd is 50 nM.
